How the values were obtained:
[1] = molecular target: taxol-stabilized microtubules polymerized from bovine brain tubulin (bovine) (UniProt Q6B856)
[2] = molecular target: taxol-stabilized microtubules polymerized from bovine brain tubulin (bovine) (UniProt Q6B856); experiment: co-sedimentation; microtubule pelleting assay as with ATP but with 5 mM AMPPNP: 1 uM Kif5A, tubulin 0-8 uM (WT) or 0-20 uM (mutants), 20 uM taxol, room temperature 15 min; fraction Kif5A bound by western blot densitometry

human Kif5A, first 560 amino acids, wild type, fused to EGFP and a C-terminal 6xHIS tag, sequence (Q12840 1-560): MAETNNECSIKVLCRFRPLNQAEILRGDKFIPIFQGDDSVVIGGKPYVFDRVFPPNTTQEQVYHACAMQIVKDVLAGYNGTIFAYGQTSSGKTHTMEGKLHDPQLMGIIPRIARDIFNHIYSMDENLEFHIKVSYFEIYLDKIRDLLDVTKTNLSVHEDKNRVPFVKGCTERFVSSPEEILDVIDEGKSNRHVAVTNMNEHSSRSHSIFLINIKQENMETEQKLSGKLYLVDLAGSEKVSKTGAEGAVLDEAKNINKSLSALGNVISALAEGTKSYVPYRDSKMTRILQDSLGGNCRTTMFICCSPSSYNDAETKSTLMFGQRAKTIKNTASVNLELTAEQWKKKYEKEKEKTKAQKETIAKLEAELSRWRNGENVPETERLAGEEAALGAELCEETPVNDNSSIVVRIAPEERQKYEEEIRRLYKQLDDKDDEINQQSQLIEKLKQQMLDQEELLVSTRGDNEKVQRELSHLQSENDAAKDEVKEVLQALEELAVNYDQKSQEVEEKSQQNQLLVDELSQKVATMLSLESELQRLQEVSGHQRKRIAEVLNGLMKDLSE

Substance | -fold increase of the ATPase rate by MTs (MT-stimulated over basal; malachite green phosphate assay, microtubules from 2 uM tubulin) [1] [fold] | percent bound at saturation [2] [%]
human Kif5A, first 560 amino acids, E251K, fused to EGFP and a C-terminal 6xHIS tag (from UniProt Q12840 1-560) (domain or fragment) | 6.2 | –
human Kif5A, first 560 amino acids, M198T, fused to EGFP and a C-terminal 6xHIS tag (from UniProt Q12840 1-560) (domain or fragment) | 42.6 | –
human Kif5A, first 560 amino acids, R204Q, fused to EGFP and a C-terminal 6xHIS tag (from UniProt Q12840 1-560) (domain or fragment) | 10.6 | –
human Kif5A, first 560 amino acids, S202N, fused to EGFP and a C-terminal 6xHIS tag (from UniProt Q12840 1-560) (domain or fragment) | 5.4 | –
human Kif5A, first 560 amino acids, S203C, fused to EGFP and a C-terminal 6xHIS tag (from UniProt Q12840 1-560) (domain or fragment) | 23.5 | –
human Kif5A, first 560 amino acids, wild type, fused to EGFP and a C-terminal 6xHIS tag (from UniProt Q12840 1-560) (domain or fragment) | 33.2 | 100

Reference: PMC5498027
